{
  "source": "patent US20020055130",
  "key": {"[1]": {"test_system": "purified recombinant catalytically inactive MEK-1"}, "[2]": {"target": "T1, purified recombinant MEKK1 NH2-terminal fusion protein (50 kD) (UniProt P53349)", "T1 sequence": "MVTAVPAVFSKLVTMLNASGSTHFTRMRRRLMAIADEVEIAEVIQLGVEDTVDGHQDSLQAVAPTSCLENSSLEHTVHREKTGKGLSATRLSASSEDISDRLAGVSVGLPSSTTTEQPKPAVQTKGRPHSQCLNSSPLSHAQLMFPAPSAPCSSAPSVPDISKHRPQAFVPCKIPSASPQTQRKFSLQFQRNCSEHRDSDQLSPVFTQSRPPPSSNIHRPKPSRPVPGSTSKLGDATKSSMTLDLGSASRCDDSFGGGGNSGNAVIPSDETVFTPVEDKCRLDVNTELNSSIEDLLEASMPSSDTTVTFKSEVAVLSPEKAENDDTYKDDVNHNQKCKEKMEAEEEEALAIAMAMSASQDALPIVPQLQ"}},
  "data": [
    {"substance": "98 kD MEKK protein (98 kD MEKK1) of PC12, Rat1a, NIH3T3 and Swiss3T3 cells", "values": [
      {"measurement": "phosphorylation of kinase inactive MEK-1 by Mono Q fractions (in vitro kinase assay)", "setting": "[1]", "result": "Fractions 10-14 of lysate from PC 12 cells treated with EGF phosphorylated MEK-1"},
      {"measurement": "phosphorylation of the MEKK1 NH2-terminal fusion protein by immunoprecipitates (in vitro kinase assay)", "setting": "[2]", "result": "MEKK1 immunoprecipitated from lysates of EGF-stimulated and unstimulated PC12 cells robustly phosphorylated the inert 50 kD MEKK1 NH2-fusion protein"}
    ]}
  ]
}
